Measurements reported in the NTF2 design screens of Basanta et al. (2020).

Experiment: protease stability score; higher = more stable; yeast display proteolysis, trypsin and chymotrypsin;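 also: relative to predicted unfolded state with 0 unfolded-like and 1 meaning tenfold more protease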

Row | Sequence | protease stability score
1 | SETEESLRRYIEDWLTALSTGNEDTLKRLMDPSTRVTVDGVEYHGRSALEEFIKRVDVIHRSDRHDFKIQGEKVHVDVRMDVHIDGQKHTLHSHWLILKINGRWVIHELIFE | 1.99
2 | SETEETSRHLMEMFEKSMLTGDEEHYKRMADPNVRMHINGQEYVGWEDFTRILREIRTEEVRFKVKRYDLVGEYLHVDLRIERDTHVNGVKVEFRTEAELIVVKVDGRWIVKEVRIK | 1.27
3 | SETEETVRRFFELLMKLEHTGNEEAIEKLFDPNMKWHQGEKERHGRETFSRMVSELRIHDFRLHRIEIYGDKAIIEGSVDGNFNGQRSEVEVTIHLEKIDGRWFIHSIHLS | 1.15
4 | SETEEWQHQILEILERIQKTGDPHEFMHNADPHVRLHVNGRDFHGMELFKEMFEKFGAKVSHLRDVDIQGDKIHVDGELEFNGVTHKSHVDARKVDGRWVLTRYTIK | 0.415
5 | SETEHYSQKLLDLIVKAMRTGDEEMFERLLDPNTRELVDGQELHGREEWHHLWHRIDHLRIDHSEISHVNPIGEFIVVHMRVRMTLHINGKIHHYETEVIIIILKIDGRWLMHEVRFH | 0.647
6 | SETEKELHEFFRLWIQLFLTGDFDELKHYIDPNVRSVINGRQLIGMEEVWRWREEARIKDIEIKDVRVQGDKIEADGVLEGTINGVDRRTDTHIQLNVVNGVAKHTFIRIR | 1.45
7 | SETEKFAEIALKLWIRRLRTGDEHEESMLADPNTLYVQGDKNIHGMERISRFFKEILTRHGITFNHFHLEHIEVQGNKVRLDLRVDGEFDGQRMNQEVELISIKVDGRWFLESVIIR | 1.62
8 | SETEKHLQDIADILVHAEITGDEETLNKMLDPDVRMHNEVNGREYHIHGREEVLKHWREWVTRFKGARIDIEDVHIINGVVHVNMKIIFNGRRIESRLDVEVVNGRVRTIRIHER | 2.15
9 | SETEKLLHEILEKLIRNEATGNFENIEQLLDPHYRVEIGEFEMHGMEEIIRWLNWVKREMRIKRRHIRTMTWQGDKALVDTELHIQVNGQHIRLDEYIVVLIINGRVKEVRVEHR | 0.943
10 | SETERKVREVLRLLDESLTTGDEREFRHLFDPNARLEIGDWEIHGMEIIDRLLHEIRIEVNDSKVRRIRIQGDKVEVHTRVDLKFNVDGVTERHDRDQHLLILKVNGRWLIKNFYIE | 1.1
11 | SETERYNEELLTKWFHAEHTGNFEMLQRLIDPHARIDINGVEHIGWRQFTKSLEDFGIDHIHHLKIDHFRVFNGRLFIDVTTDGTINGQRHKTKVLIRIVLYNGVIHEMSIEWV | 1.33
12 | SETHEILERIMRMILEILYTGDEESMSRLLDPHVKLVVVIGDKELHLHGRENALRWLVHWRIEDYRLRRYTVQGDKAHVDTESTGNYNGQREESRFSLHVKVINGKIHNMKFEFE | 2.56
13 | SETHKHWEEVARIIIKALETGDFRLFHKLLDPNARLHHDIGDKRVNNVGREEVVRTLKMWIDRFPNVTIELKDMRVIDGVVHHDESLNINGVTVRVHIEIIVFDGKLEEMRIEYR | 1.23
14 | SETHMESKIASEIFSDIMHTGDFRTLLRYADPHVRYIVGDKTMHGREIMVEEFKELWKTWGVDRVEVRIEDIKVIGEKVEIHGTLIIGEKTLRVVVISTKVNGQWIQDTFNVDEK | 0.838
15 | SETKKLWKDLADEVLRAWETGNEEEMEKMLDPHTRLHIHINGRDFHAHGRENIIRMMKFTLDFLGIDHFILRRVTYINGVVHIHQQVIINGQESNVRLEVEIIDGVWHEISVDIH | 1.44
16 | SETREDTRELVESFLNALRTGDEDLLRRLMDPHVKVYFNGREFHGRELATRVESHLRVHDIDVRDMRIIGDKVIIDLQVDGEWDGVRFHRETELHTQKVNGRWFIREIRIH | 2.23
17 | SETREIEEEWLRMMFENFITGDWKEIYKYADPNMRFTLSIGEKQERRHGRESMFHAFRRLEEDLGAKHVRLEDSTVYNGRVEINITLEDGDKHINRYIHIQVVNGRMHTIEVSFR | 0.628
18 | SEVAEVAREIVEIITKREYTGDEKTLDRMMDPNVRVEIGDWEIIGRDIYQKFVIELRVKDMHVRFKDVRVQGDFAFQDTELRMHGIIDGKDRETSHDTHWVFYKVDGRWLVHSIHIK | 1.3
19 | SEVDEQAEHMSRLYLKLIKTGDEEHLMHLADPHTRLDINGKTFIGMEVVHEFNEKERRRVPNMRIHEKSVKVEVFDGRAFTEIHGEWHFDGVTQEIRIEVRIDKVNGRWTIRSVHVEIR | 0.704
20 | SEVEDFLHEFVRKLVRVLDTGDWEVLEKMFDPNTRFHIGDKELHGREEFVKFTEELGIRVRWELKDIRFQGDKAETIGTERVDFNGKEITTDVTFEVLLFNGVIKEIRIRRR | 1.36
21 | SEVEEDIRKWLKEHTDSIRTGDEERMLRNMDPHVRVDIDGVEHHGWEHLEEFIHRLTKKIKNMRVDWHRVRFQGDKAEIDGELDIDGRVTHVHIHSIKVDGRWYIKEIYIT | 1.24
22 | SEVEEDTKRVLELLRESWKTGDEHSIKEMLDPNVKILVGDKEFHGMEDWHRIYKRFDYISIRHVRLKDSRHINGVVYLIIHIESEYRIGDKTTEKRYDASIINEKVDGRWIIRSIEIH | 1.91
23 | SEVEEEMEEILKKLLTAFRTGDEKTLEDLLDPHVRLEIGDKTHVGWRDIAEFLRRHIERVDHMRINIDHMEIQGEKIHIDGTLHFWIGDKRHHEKVHLIFVIVNGRLKKIHIHKI | 2.64
24 | SEVEEEMKRRVELLIRLLLTGDEDTFDSNADPDTRVVIRQGDFRVENHGRELMLHHLRELGIKVTELHLREIRIQGDWAHVNIQEHIEVDGRLESRTIHLHFFLVDGKVKSWEIEVR | 1.27
25 | SEVEEEMTRIADILLRVTKTGDWEEMRDLIDPDARMIIDIDGREHINVGREDLARSLKRLRDHLGVKVWDYHHISVIGDKIHIETQQRFNGQDVTTRNEWTVINGKLKEMRLIIH | 2.02

Row | Sequence | protease stability score
26 | SEVEEFVKRVIHLFHKAFLTGDEHTLIELIDPNARYDVDGRDVHGREIIVEFISTMWRDRGIRIKHVHIEERRYINGRIEIHSKIDVTIGDKREHLETSMIWVKINGQWFIEILIVR | 0.233
27 | SEVEELSRRVAEFTWEVLRTGDERLLREMIDPNVRMEIDGQEYHGMELLVEHWIKLHQKFPNLKLHLREVRVIDGVAHVRLEVRFNGVRLEIEVVITKINGRWSNTFVHETDR | 1.13
28 | SEVEERFKEEMHRQFENSETGNEDEVAKYFDPDARMHIDGKEIHGRDEVKRILSEWRLTHITLRDFRIVGNKIHTDAEVVIEIGDKKIRYRVHIIQYKVNGQWRVESFEVK | 0.88
29 | SEVEESAKIIAELWAHSVETGDEHTLRELMDPNTRFEYGDKERHGRENVTKYFLHFQKWLGFKHIRLEIEDSKAIGDKIKIDLTIKLHQGEKHDFVIVQLFVTKVNGRWVIHSMIVH | 1.58
30 | SEVEESIEHAREIVTEVIKTGDEHHLNRLADPNTRVVFDGKDLHGRERLEEVLREMGVNHIEIKDMKYDSQGNKVHIDIDGRVNVGEKSHNTHLHWIVEKVNGRWLLSSIIIIIR | 0.886
31 | SEVEEWLRTLIHLIILAFRTGDEDQMRRNFDPNARVHVGDKDYHGRELFEEMMHHWRLHHIHIHDVRVQGDYVEADIKLDGEVNGKRFTTRVIIVFLKIDGKWQEKESEFV | 0.395
32 | SEVEHALHEILEILVKIMKTGNFEDLIRNFDPHVQLEFNGKRYHGREAEHFLRERFDHNRHHHVHEVRVQGDKVELHGKLIGEFNGREEEVHIDIIAHKINGRWIFKSVHFR | 2.15
33 | SEVEKHLHNVIELYIRALRTGDEERLRKLLDPHVRVRIGDKHLHGREDWWQHVTRYDHESVHDLKIDHVRVVGNKIEMIITHDIIIIVNGVNLRHSIETEVHARKVDGVWYLTELHHG | 0.075
34 | SEVEKMARHFVELLSKALLTGNWKTIKELVDPNDLLVVGDKIFHGWDVREEERKRFDHHVMDVKVDHHRDIDGRIEMETTLHLDVNINGVRFHFNHETEMIVRKVNGRWILKSETIR | 0.087
35 | SEVERLLREILKLVQHAYETGDEETITELVDPHARMDINGKELHGRDMLHLLLRRIDHEHMRVEMKSVEIQGEWAISRGEEQVHVHVNGKKFDLVINSRVVLHKVDGQWVVRSLFYK | 0.787
36 | SEVHEQIEEIFREFMHMLLTGDWKRLTELADPHVRLEFDGREFHGREELVRRLLELGFKHQHLHDMRIHNFDGRVYMHTDTRVHVDGKHVIVRLELIVNKFNGQWYVHSLRIEVQ | 0.343
37 | SEVHRDLRKAVDYFEEVFRTGDEDKMNNLLDPNVRWIVNGKDLVGREKAIRRYHEHRKTLGVNHFETRIDDQEVYGNKATLHGELTIHVNGRDIHHETRLNVSKINGVWYIESFIID | 0.949
38 | SEVNKHVEEISKLMVKFLLTGNEDLHKSLADPNYYSDVNGRHVIGRHHVEELWHLFLNEIRIDNIHIEDMKIQGEKAHIQGRIIGTVNGKHDELHATMIVVVIDGRIHSLKVEWR | 1
39 | SEVQELAERMFRFLLKVFETGNEDRLTELMDPNTLQIIGDKRNHGRDLYLRTVFEKVEHARMRIEFKEVHVINGQINVDGILWLEFDGRRIFFRVHLELTVVNGVLKEEHVTIH | 1.56
40 | SEVQESIKEVIEIWNKALETGDWHRLTELADPDTRVEIGDKDIIGREAVTSELEKVTHKFKNLRIDEIHIERLEIQGEKVELHGIIRGTVNGQHRFYHTEFIIVKINGRWRLRVIYFL | 1.79
41 | SEVQETIDHLVREVLHDFRTGDERRLEENMDPNAKSIFDGRESHGREKVSKMIHDFLEEMGFKHMELKEREVVGNKVEIHGRVIIGDKEFELHLHSQKIDGRWVLDSIRIE | 0.52
42 | SEVREDIERILTQWSKIMETGDEHTAKRLADPHVKIEVDGRTSVGMETWMEFLRDLGFKVIHVRVHIEHVRDIDGKARVDIRLVIESNVGDKTERYEHETHMIIEKIDGRWVLTRILLK | 1.01
43 | SEWDELLRHILEVMINSVLTGDEHRQLWMADPHAKVHFENHEVHGRDHWSHLVREHINEIRMRIHLHDEKTVGNFAVSDVRYREEVNGVELSTEIELILIVVDGRLKQIEFRYH | -0.029
44 | SEWDRLMKRIAEDITTALQTGDEDRMHELFDPHARMILLIGDFELHYHGMHEISRVLEEHLRRYDHLEWHIRHVDTQGNKVRVESEMRLIIGDKSETRDYRIILIVINGRNKSVEFRVH | 1.49
45 | SEWEEELERLLREIIHSILTGDEKRLRELMDPNAKFHILVNGVEIDLMGMEHHSHWFREWLKHARINTVHIRHYDVVGEKARSDTELDMEIDGRRIRTRTELILVVIDGRVHSLEIRIK | 2.02
46 | SEWEEFMERMLELVIEVMKTGDFDRFRSLFDPHVKIRIIIGDKHHEFHGWLWLRTLIEKMGIDHLQINVRSYRIIGDKLEVDGELLSHYNGRTSHRTVHYHIVIINGRLHHITIEYH | 0.214
47 | SEWEEISRKISRDWTEWLETGDFETFMNYVDPNARYRQGDKDLHGMETLHRYIYHMRMHIRIRRIDHQGDYILIDGELELRQGDKTHRFESIIYIIVIDGKLRRFEIRER | 0.733
48 | SEWEHNLQRFIEELIEDARTGNEENIRENMDPDVRAEVDGQELHGREAQRFVRERIDVIKHNHLREIRFQGDFIHVRGELRGEVNGKEVHTDTHFVIWKFNGRWIIRHVLIR | 1.03
49 | SEWEKDLELALRFVMHAFTTGNWEDLLKFFDPDVRIEVGDKEIHGRHVFFEFLEKLGVKHLRLEIELNHFEIQGDKIHEHGIYRFTYHYNGRVEKKEHDTRVHVTKINGRWYLTHQRVD | 0.668
50 | SEWEKQLRHMVHLVLLAVRTGNEHLLNELLDPDTRAVFNGVESVGREDMWRMLKHLRIERVRVHDERHDDQGNKARFILLGETQVNVNGKVLETHTEIEIILIKVDGQWTFETLTFRIT | 1.55
